Results on 7 sequences are retold here after the DeepSol protein solubility set.

The series in a line: soluble on expression in E. coli; label from the status in PepcDB or PDB records.
Turning to “MSLSKNWLFLGKGFRWRPSHTQKLHQIKQVKNEKFMQRSYCYQLTRRFCQSHEHTKLAKWLNINSKLNPFRPDPPVGGSPFLHGVGDEDKPVYIPQDVRVGHTFVVGTTRVGKTRLASILINQDIRNGDAVIVVDPKGDQDLVRDMVAACKVSGRTEDFKIVHLGFPEQSAQYNPLKKFDQISEVATRITDAISAEGEGKQFAAFAWKYVNIVAICLEEMNQPITYQTIAFYISRLEQLLMSYADNILPNHYLNYHQEIDDIIEEHDSKIGKNNKTKSPMERHQAVIQYIKDHINKTIKSNNAEALHDQILIDLYDAAIMDKHYYDKITASVGPVLSEINKSNASKILSSKAQPGDIELMDVIKNKKVLYIGLDSLTNPNIAQAVGKAFLSDLVSTAGKIYKEPNARYTLNLHCDELSEIIQDSFVKILNKAGGAGFQVTAYAQTIQDMEVALGSRAKAEVSEGNFNTLIMLRVKNEETANLLVKVLPQVGVVGHTQVSMVNDTPHGDDGVYFNTTNEDRVQTSNAPMIGVDDIISLPKGQAFVLASGGEIWKIRIPLPMNSNEGHHHHHH”, the “soluble on expression in E. coli” value is “not soluble”.

Turning to “MSLRSMFMYKSHIPEDCEEEAQITAAKLILLVDDDPVFRRMTKGYLQKYGYQVIEAENGLDGLRKLRDHEPDLILCDLSMPVLNGIEFVEEVSSSYPSLPLVVVSATEEMADVAKALRFGIKDFLPKPITNHSHLASAIEKVLANDDHQRDFASCWYGADRQGSIPEEQELHWHLQYLKDNPNAAKELLEALLPEKDSQLGSWKCSYRLLQSAELMPLVFDYAWLMNGQFVFYVVDAASHRECGAASTLLVRALFHDYLRNLRNFSVELKDLAEIIERGIHCSECIGKVSALFGVADLADGTLSLLPAGLDCQWSNGYVHNRITSGVQLGDNSLRNFITKDLPIRAACQISLSKPSAYSFTLDLYQGEGHHHHHH”, the “soluble on expression in E. coli” value is listed as “soluble”. For “EHDNTSYICKKIDEDEYVLSARLEIEKVNEMFGLDLPESDDYLTVGGLILNQYQSFPKLHELVRVGRYQFKIIKVTATKIELVRLKVME”, the “soluble on expression in E. coli” value is on record as “not soluble”. To “MDIAQDWNGIPVPANPGNGMTWQLQDNVSDSFNYTSSEGNRPTAFTSKWKPSYINGWTGPGSTIFNAPQAWTNGSQLAIQAQPAGNGKSYNGIITSKNKIQYPVYMEIKAKIMDQVLANAFWTLTDDETQEIDIMEGYGSDRGGTWFAQRMHLSHHTFIRNPFTDYQPMGDATWYYNGGTPWRSAYHRYGCYWKDPFTLEYYIDGVKVRTVTRAEIDPNNHLGGTGLNQATNIIIDCENQTDWRPAATQEELADDSKNIFWVDWIRVYKPVAVSGGGNNSLEHHHHHH” belongs “soluble”; to “MEPEEERIRYSQRLRGTMRRRYEDDGISDDEIEGKRTFDLEEKLHTNKYNANFVTFMEGKDFNVEYIQRGGLRDPLIFKNSDGLGIKMPDPDFTVNDVKMCVGSRRMVDVMDVNTQKGIEMTMAQWTRYYETPEEEREKLYNVISLEFSHTRLENMVQRPSTVDFIDWVDNMWPRHLKESQTESTNAILEMQYPKVQKYCLMSVRGCYTDFHVDFGGTSVWYHIHQGGKVFWLIPPTAHNLELYENWLLSGSQGDIFLGDRVSDCQRIELKQGYTFVIPSGWIHAVYTPTDTLVFGGNFLHSFNIPMQLKIYNIEDRTRVPNKFRYPFYYEMCWYVLERYVYCITNRSHLTKEFQKESLSMDLELNGLESGNGDEEAVDREPRQVHLTHFELEGLRCLVDKLESLPLHKKCVPTGIEDEDALIADVKILLEELANSDPKLALTGVPIVQWP”, “soluble”. The same measure for “MGSDKIHHHHHHMAAELKTITVLGAGGKMGMRISANFQKSDYQVFYCENSPRAQEQVVAAGRELSIAEQVIPESDVVILAVPDIALKAVSGIVVPQMKSNAVLLTLDPAAAYANLIAKRDDIDYAVAHPCHPSVFLDRFTPEEHADAFGGVAAPQHVAASYETGSDEQKATLARVVKVMYGPVIDVHWVTVKQLAYLEPTLVETVACMVGTLMKEALDETINTIGVPEAAAKAMLYGHIQIALAVAFRSTNPFSDACMIAIEYGKENIIKPDWKKIFDEKELDLVIAKMLKIDAIER”: “not soluble”; for “GPGSMLANYDYESDLRGRTDELGRAQHVDAYDKHPTFLESPYAGQEDLLRDAPQSYMDGPPPGYGGHDAYEHVDMNGGGYDLPLQPQAQTQAVDTRRLSKDRLARGGLNIFSWNTDAPTLNHPREVRERDCAELQRLRPVDSAAQRDKEVREKFEGNTQSRFLCFSESDSPGKRRGVRVFNPNNKNGNLNSGTGHENPIQNRFNEEPQPFKIRQQQPRPLPQQNLPPAGRATHSNRQESGGIPGFAGMGEGRQHNARRGRGSYRG”: “not soluble”.
